Results from PMC10397247.

Tests used:
Core_NNNI-es_KKEK = molecular target: T1, Core_NNNI-es_KKEK; experiment: two-hybrid library CCmax; settings: mean of both orientations;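 note: natural log of median RNA to DNA barcode read ratio; higher means stronger binding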
T1 chain: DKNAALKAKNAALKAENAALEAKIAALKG

4H745-AA = molecular target: T2, 4H745-AA; experiment: two-hybrid library CCmax; settings: mean of both orientations;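 note: natural log of median RNA to DNA barcode read ratio; higher means stronger binding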
T2 chain: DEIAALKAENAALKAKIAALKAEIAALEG

4H_BCR = molecular target: T3, 4H_BCR; experiment: two-hybrid library CCmax; settings: mean of both orientations;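 note: natural log of median RNA to DNA barcode read ratio; higher means stronger binding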
T3 chain: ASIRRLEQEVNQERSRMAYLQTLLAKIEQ

P5-AA-12HAA-T = molecular target: T4, P5-AA-12HAA-T; experiment: two-hybrid library CCmax; settings: mean of both orientations;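 note: natural log of median RNA to DNA barcode read ratio; higher means stronger binding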
T4 chain: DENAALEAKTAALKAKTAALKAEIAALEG

4H510-AA = molecular target: T5, 4H510-AA; experiment: two-hybrid library CCmax; settings: mean of both orientations;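 note: natural log of median RNA to DNA barcode read ratio; higher means stronger binding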
T5 chain: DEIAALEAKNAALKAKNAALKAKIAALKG

O13-AA = molecular target: T6, O13-AA; experiment: two-hybrid library CCmax; settings: mean of both orientations;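 note: natural log of median RNA to DNA barcode read ratio; higher means stronger binding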
T6 chain: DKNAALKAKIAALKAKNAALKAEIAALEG

GCN2_T = experiment: two-hybrid library CCmax; settings: mean of both orientations
4H3753-AA = molecular target: T7, 4H3753-AA; experiment: two-hybrid library CCmax; settings: mean of both orientations
T7 chain: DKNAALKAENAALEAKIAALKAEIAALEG

4H_APH = molecular target: T8, 4H_APH; experiment: two-hybrid library CCmax; settings: mean of both orientations
T8 chain: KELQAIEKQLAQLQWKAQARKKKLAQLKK

4H909-AA = molecular target: T9, 4H909-AA; experiment: two-hybrid library CCmax; settings: mean of both orientations
T9 chain: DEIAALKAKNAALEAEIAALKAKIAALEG

P5-AA-12HAA-L = molecular target: T10, P5-AA-12HAA-L; experiment: two-hybrid library CCmax; settings: mean of both orientations
T10 chain: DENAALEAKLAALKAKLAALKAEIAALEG

P5-AA-12HAA-D = molecular target: T11, P5-AA-12HAA-D; experiment: two-hybrid library CCmax; settings: mean of both orientations
T11 chain: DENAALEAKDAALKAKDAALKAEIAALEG

P5-AA-12HAA-E = molecular target: T12, P5-AA-12HAA-E; experiment: two-hybrid library CCmax; settings: mean of both orientations
T12 chain: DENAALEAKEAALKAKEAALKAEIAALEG

4H485-AA = molecular target: T13, 4H485-AA; experiment: two-hybrid library CCmax; settings: mean of both orientations
T13 chain: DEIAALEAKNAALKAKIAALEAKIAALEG

4H94-AA = molecular target: T14, 4H94-AA; experiment: two-hybrid library CCmax; settings: mean of both orientations
T14 chain: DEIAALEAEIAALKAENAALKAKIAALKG

4H710-AA = molecular target: T15, 4H710-AA; experiment: two-hybrid library CCmax; settings: mean of both orientations
T15 chain: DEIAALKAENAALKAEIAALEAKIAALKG

O14-AA = molecular target: T16, O14-AA; experiment: two-hybrid library CCmax; settings: mean of both orientations
T16 chain: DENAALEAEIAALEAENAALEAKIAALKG

4H3905-AA = molecular target: T17, 4H3905-AA; experiment: two-hybrid library CCmax; settings: mean of both orientations
T17 chain: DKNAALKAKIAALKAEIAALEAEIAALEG

4H3865-AA = molecular target: T18, 4H3865-AA; experiment: two-hybrid library CCmax; settings: mean of both orientations
T18 chain: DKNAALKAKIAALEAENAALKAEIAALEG

P5-AA-12HAA-V = molecular target: T19, P5-AA-12HAA-V; experiment: two-hybrid library CCmax; settings: mean of both orientations
T19 chain: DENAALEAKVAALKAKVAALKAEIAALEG

4H930-AA = molecular target: T20, 4H930-AA; experiment: two-hybrid library CCmax; settings: mean of both orientations
T20 chain: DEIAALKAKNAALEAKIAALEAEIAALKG

P5-AA-1HAA-N = molecular target: T21, P5-AA-1HAA-N; experiment: two-hybrid library CCmax; settings: mean of both orientations
T21 chain: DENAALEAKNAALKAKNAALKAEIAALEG

4H4038-AA = molecular target: T22, 4H4038-AA; experiment: two-hybrid library CCmax; settings: mean of both orientations
T22 chain: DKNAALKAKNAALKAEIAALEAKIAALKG

4H3625-AA = molecular target: T23, 4H3625-AA; experiment: two-hybrid library CCmax; settings: mean of both orientations
T23 chain: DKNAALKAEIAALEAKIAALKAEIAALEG

4H_GCN4 = experiment: two-hybrid library CCmax
Chain of 4H_GCN4 (chain, as listed by the source): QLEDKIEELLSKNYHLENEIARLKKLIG

P5-AA-12HAA-A = molecular target: T24, P5-AA-12HAA-A; experiment: two-hybrid library CCmax; settings: mean of both orientations
T24 chain: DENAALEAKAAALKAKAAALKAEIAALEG

4H384-AA = molecular target: T25, 4H384-AA; experiment: two-hybrid library CCmax; settings: mean of both orientations
T25 chain: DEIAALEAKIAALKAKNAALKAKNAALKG

P5-AA-12HAA-S = molecular target: T26, P5-AA-12HAA-S; experiment: two-hybrid library CCmax; settings: mean of both orientations
T26 chain: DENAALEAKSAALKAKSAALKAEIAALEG

4H458-AA = molecular target: T27, 4H458-AA; experiment: two-hybrid library CCmax; settings: mean of both orientations
T27 chain: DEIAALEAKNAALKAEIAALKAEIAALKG

O11-AA = molecular target: T28, O11-AA; experiment: two-hybrid library CCmax; settings: mean of both orientations
T28 chain: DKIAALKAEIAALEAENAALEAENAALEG

4H3590-AA = molecular target: T29, 4H3590-AA; experiment: two-hybrid library CCmax
T29 chain: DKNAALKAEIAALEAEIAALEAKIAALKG

P5-AA-12HAA-Y = molecular target: T30, P5-AA-12HAA-Y; experiment: two-hybrid library CCmax; settings: mean of both orientations
T30 chain: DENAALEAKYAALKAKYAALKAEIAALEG

4H850-AA = molecular target: T31, 4H850-AA; experiment: two-hybrid library CCmax; settings: mean of both orientations
T31 chain: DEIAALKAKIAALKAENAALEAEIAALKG

P5-AA-12HAA-R = molecular target: T32, P5-AA-12HAA-R; experiment: two-hybrid library CCmax; settings: mean of both orientations
T32 chain: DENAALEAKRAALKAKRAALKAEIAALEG

4H43-AA = molecular target: T33, 4H43-AA; experiment: two-hybrid library CCmax; settings: mean of both orientations
T33 chain: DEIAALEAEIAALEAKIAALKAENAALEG

4H536-AA = molecular target: T34, 4H536-AA; experiment: two-hybrid library CCmax; settings: mean of both orientations
T34 chain: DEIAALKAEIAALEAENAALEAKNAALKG

4H451-AA = molecular target: T35, 4H451-AA; experiment: two-hybrid library CCmax; settings: mean of both orientations
T35 chain: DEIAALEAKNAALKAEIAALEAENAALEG

4H797-AA = molecular target: T36, 4H797-AA; experiment: two-hybrid library CCmax; settings: mean of both orientations
T36 chain: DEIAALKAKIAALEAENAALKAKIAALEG

4H891-AA = molecular target: T37, 4H891-AA; experiment: two-hybrid library CCmax
T37 chain: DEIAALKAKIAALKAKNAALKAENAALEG

4H629-AA = molecular target: T38, 4H629-AA; experiment: two-hybrid library CCmax; settings: mean of both orientations
T38 chain: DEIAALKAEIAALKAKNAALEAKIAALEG

P5-AA-12HAA-H = molecular target: T39, P5-AA-12HAA-H; experiment: two-hybrid library CCmax; settings: mean of both orientations
T39 chain: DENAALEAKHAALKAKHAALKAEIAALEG

4H570-AA = molecular target: T40, 4H570-AA; experiment: two-hybrid library CCmax; settings: mean of both orientations
T40 chain: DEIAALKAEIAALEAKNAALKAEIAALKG

P5-AA-12HAA-K = molecular target: T41, P5-AA-12HAA-K; experiment: two-hybrid library CCmax; settings: mean of both orientations
T41 chain: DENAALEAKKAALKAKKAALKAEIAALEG

4H3697-AA = molecular target: T42, 4H3697-AA; experiment: two-hybrid library CCmax; settings: mean of both orientations
T42 chain: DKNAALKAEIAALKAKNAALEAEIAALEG

4H2696-bN = molecular target: T43, 4H2696-bN; experiment: two-hybrid library CCNG1
T43 chain: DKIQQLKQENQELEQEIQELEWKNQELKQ

4H2937-bN = molecular target: T44, 4H2937-bN; experiment: two-hybrid library CCNG1
T44 chain: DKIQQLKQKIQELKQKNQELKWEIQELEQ

4H491-bN = molecular target: T45, 4H491-bN; experiment: two-hybrid library CCNG1
T45 chain: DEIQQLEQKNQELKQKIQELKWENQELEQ

4H2883-bN = molecular target: T46, 4H2883-bN; experiment: two-hybrid library CCNG1
T46 chain: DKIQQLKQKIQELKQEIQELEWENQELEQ

4H342-bN = molecular target: T47, 4H342-bN; experiment: two-hybrid library CCNG1
T47 chain: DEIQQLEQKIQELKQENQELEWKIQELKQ

4H2944-bN = molecular target: T48, 4H2944-bN; experiment: two-hybrid library CCNG1
T48 chain: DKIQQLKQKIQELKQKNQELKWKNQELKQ

4H48-bN = molecular target: T49, 4H48-bN; experiment: two-hybrid library CCNG1
T49 chain: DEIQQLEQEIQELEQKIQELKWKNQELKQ

4H19-bN = molecular target: T50, 4H19-bN; experiment: two-hybrid library CCNG1
T50 chain: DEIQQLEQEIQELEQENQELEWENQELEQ

Core_NIII-es_KKKE = molecular target: T51, Core_NIII-es_KKKE; experiment: two-hybrid library CCmax; settings: mean of both orientations
T51 chain: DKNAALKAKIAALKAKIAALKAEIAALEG

Core_IIIN-es_KEEK = molecular target: T52, Core_IIIN-es_KEEK; experiment: two-hybrid library CCmax; settings: mean of both orientations
T52 chain: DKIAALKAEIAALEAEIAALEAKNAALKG

Core_NNNN-es_KEEK = molecular target: T53, Core_NNNN-es_KEEK; experiment: two-hybrid library CCmax; settings: mean of both orientations
T53 chain: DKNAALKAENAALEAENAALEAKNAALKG

Core_IIII-es_KEEK = molecular target: T54, Core_IIII-es_KEEK; experiment: two-hybrid library CCmax; settings: mean of both orientations
T54 chain: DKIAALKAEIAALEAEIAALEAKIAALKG

Core_INII-es_KKEK = molecular target: T55, Core_INII-es_KKEK; experiment: two-hybrid library CCmax; settings: mean of both orientations
T55 chain: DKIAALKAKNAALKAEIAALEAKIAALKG

DENAALEAENAALEAKNAALKAEIAALEG [Core_NNNI-es_EEKE]
interaction score (Core_NNNI-es_KKEK): 2.2

DKNAALKAEIAALEAEIAALEAKIAALKG [4H3590-AA]
interaction score (4H745-AA): 1.02 | interaction score (4H_BCR): -0.0889 | interaction score (P5-AA-12HAA-T): 1.63 | interaction score (4H510-AA): -0.0505 | interaction score (O13-AA): 1.33 | interaction score (GCN2_T): -0.424 | interaction score (4H3753-AA): 0.435 | interaction score (4H_APH): -0.247 | interaction score (4H909-AA): -1.14 | interaction score (P5-AA-12HAA-L): 2.42 | interaction score (P5-AA-12HAA-D): -1.25 | interaction score (P5-AA-12HAA-E): -0.101 | interaction score (4H485-AA): 1.8 | interaction score (4H94-AA): -1.15 | interaction score (4H710-AA): -1.14 | interaction score (O14-AA): -1.17 | interaction score (4H3905-AA): 2.01 | interaction score (4H3865-AA): -1.18 | interaction score (P5-AA-12HAA-V): 2.25 | interaction score (4H930-AA): -1.4 | interaction score (P5-AA-1HAA-N): -0.0553 | interaction score (4H4038-AA): -0.327 | interaction score (4H3625-AA): 2.07 | interaction score (4H_GCN4): -1.16 | interaction score (P5-AA-12HAA-A): 1.75 | interaction score (4H384-AA): 1.26 | interaction score (P5-AA-12HAA-S): 1.88 | interaction score (4H458-AA): 1.13 | interaction score (O11-AA): -0.698 | interaction score (4H3590-AA): 2.25 | interaction score (P5-AA-12HAA-Y): 2.53 | interaction score (4H850-AA): -0.0746 | interaction score (P5-AA-12HAA-R): 1.92 | interaction score (4H43-AA): 1.98 | interaction score (4H536-AA): -0.687 | interaction score (4H451-AA): -1.08 | interaction score (4H797-AA): -1.01 | interaction score (4H891-AA): -0.048 | interaction score (4H629-AA): -0.923 | interaction score (P5-AA-12HAA-H): 1.78 | interaction score (4H570-AA): -0.136 | interaction score (P5-AA-12HAA-K): 2.23 | interaction score (4H3697-AA): -0.287

DEIQQLEQEIQELEQENQELEWENQELEQ [4H19-bN]
interaction score (4H2696-bN): -0.528 | interaction score (4H2937-bN): -0.594 | interaction score (4H491-bN): -0.636 | interaction score (4H2883-bN): -2.16 | interaction score (4H342-bN): -1.48 | interaction score (4H2944-bN): 2.27 | interaction score (4H48-bN): -0.58 | interaction score (4H19-bN): -0.738

DENAALEAEIAALEAEIAALEAKIAALKG [Core_NIII-es_EEEK]
interaction score (Core_NIII-es_KKKE): 2.14

DEIAALEAKIAALKAKIAALKAENAALEG [Core_IIIN-es_EKKE]
interaction score (Core_IIIN-es_KEEK): 1.73

DENAALEAKNAALKAKNAALKAENAALEG [Core_NNNN-es_EKKE]
interaction score (Core_NNNN-es_KEEK): -0.488

DEIAALEAKIAALKAKIAALKAEIAALEG [Core_IIII-es_EKKE]
interaction score (Core_IIII-es_KEEK): 2.36

DEIAALEAENAALEAKIAALKAEIAALEG [Core_INII-es_EEKE]
interaction score (Core_INII-es_KKEK): 2.11
